Measured values reported in patent US20090305281, “NOVEL INHIBITORS OF RETROVIRAL REVERSE TRANSCRIPTACE” (THE CURATORS OF THE UNIVERSITY OF MISSOURI, published 2009).

Key:
[1] = target: T1, HIV-1 reverse transcriptase (HXB2, group M subtype B) (Human immunodeficiency virus 1, UniProt P04585 SEQ:1-560); test: inhibition; DDDP, K+ buffer; conditions: tags: expressed in E. coli
Protocol: (§1) Reactions were assembled in reaction buffer (50 mM Tris-HCl pH 8.3, 75 mM KCl, 5 mM MgCl2, 10 mM DTT) with 30 nM primer, 45 nM template and 0.2 mM dNTPs. After annealing primer and template strands, DNA aptamers were added. Reactions were initiated by adding RT to a final concentration of 3 nM active site. […] Additional reactions included 1 μM and 3 μM where indicated. After 10 min at 37° C., reactions were quenched by addition of 2 volumes (20 μl) of gel-loading buffer (95% formamide with 0.01% bromophenol blue). For reactions assessing monovalent ion dependence, 75 mM KCl was replaced with 75 mM NaCl where indicated.

[2] = target: T1, HIV-1 reverse transcriptase (HXB2, …); test: inhibition; DDDP, K+ buffer; conditions: tags: expressed in E. coli; remark: listed apart in the source
Protocol: FIG. 13 Sequence plasticity of stems and loops. Inhibition of RT DDDP activity by aptamer variants. Aptamer concentrations (nM) are indicated above the lanes. (A) Aptamer TKQ4 retains inhibition even though it carries a G-to-A mutation in the fourth of the 12 G's that comprise the quadruplex. […] Similar titrations were carried out in triplicate for all aptamers for which IC50 values are reported. Aptamer R1T was included in subsequent panels to provide a consistent reference baseline of inhibition. (C) RT inhibition by aptamer SN, in which quadruplex loops are replaced with hexaethylene glycol. (D) and (E), RT inhibition by aptamers carrying mutations in helical stem domain, as detailed in text.
as §1

[3] = target: T1, HIV-1 reverse transcriptase (HXB2, …); test: inhibition; DDDP, K+ buffer; p136 states not significantly different from L1; conditions: tags: expressed in E. coli; hairpin + G4, T16 connector
Protocol: as §1

[4] = hairpin + G4, termini within quadruplex

CGCCTGATTAGCGATACTCAGGCGTTTTGGGTGGGTGGGTGGG (ssDNA) [L3]
IC50 ([1]; hairpin + G4, T4 connector): 13 nM

B1: ZAM1 (ssDNA)
DNA: CGCCTGATTAGCGCGCGCCGCGTTTTCGCGGCGCGCGCTACTCAGGCGTTGGGTGGGTGGGTGGG
IC50 ([2]; hairpin (22 bp) + G4): 10 nM

GGGTTCGCCTGATTAGCGATACTCAGGCGTTGGGTGGGTGGG (ssDNA) [Bcut]
IC50 [1, 4]: 48 nM

CGCCTGATTAGCGATACTCAGGCGTTGGGCGGGCGGGCGGG (ssDNA) [R1C]
IC50 ([2]; hairpin + G4): 26 nM

CGCCTGATTAGCGATACTCAGGCGTTGGGTGGGTGGGTGGG (ssDNA) [R1T]
IC50 ([1]; hairpin + G4): 14 nM

CGCCTGATTAGCGATACTCAGGCGTTGGGAGGGAGGGAGGG (ssDNA) [R1A]
IC50 ([2]; hairpin + G4): 18 nM

CGCCTGATTAGCGATACTCAGGCGAAGGGTGGGTGGGTGGG (ssDNA) [L6]
IC50 ([1]; hairpin + G4, A2 connector): 13 nM

CGCCTGACCCTTCAGGCGTTGGGTGGGTGGGTGGG (ssDNA) [S4]
IC50 ([2]; hairpin (CCCT tetraloop) + G4): 32 nM

CCGGACTCATAGCGATTAGTCCGGTTGGGTGGGTGGGTGGG (ssDNA) [Srevstem]
IC50 ([2]; hairpin + G4): 26 nM

CGTGATTAGCGATACTCACGTTGGGTGGGTGGGTGGG (ssDNA) [S1]
IC50 ([2]; hairpin + G4): 59 nM

B2: RT6-A (ssDNA)
DNA: ATCCGCCTGATTAGCGATACTCAGGCGTTAGGGAAGGGTAGCGATACAGGGTGGG
IC50 ([1]; hairpin + G4): 16 nM

B3: RT6-B (Vor) (ssDNA)
DNA: CGCCTGATTAGCGATACTCAGGCGTTAGGGAAGGGCGTCGAAAGCAGGGTGGG
IC50 ([1]; hairpin + G4): 5.7 nM

B4: RT6 (ssDNA)
DNA: ATCCGCCTGATTAGCGATACTCAGGCGTTAGGGAAGGGCGTCGAAAGCAGGGTGGGACTTGAGCAAAATCACCTGCAGGG
IC50 ([1]; hairpin + G4): 36 nM

B5: R8T (ssDNA)
DNA: CGCCTGATTAGCGATACTCAGGCGTTGGGTTTTTTTTGGGTTTTTTTTGGGTTTTTTTTGGG
IC50 ([2]; hairpin + G4): 20 nM

CGCCTGATTAGCGATACTCAGGCGTTGGGTTGGGTTGGGTTGGG (ssDNA) [R2T]
IC50 ([2]; hairpin + G4): 13 nM

CGCCTGATTAGCGATACTCAGGCGTTTTTTTTGGGTGGGTGGGTGGG (ssDNA) [L4]
IC50 ([1]; hairpin + G4, T8 connector): 28 nM

CGCCTGATTAGCGATACTCAGGCGTTGGGTTTTGGGTTTTGGGTTTTGGG (ssDNA) [R4T]
IC50 ([2]; hairpin + G4): ~35 nM

GGGTGGGTTGCGGACTCATAGCGATTAGTCCGCTTGGGTGGG (ssDNA) [Acutrev]
IC50 [1, 4]: 33 nM

GGGTGGGTTCGCCTGATTAGCGATACTCAGGCGTTGGGTGGG (ssDNA) [Acut]
IC50 ([1]; hairpin + G4, termini between 2nd and 3rd G triplets): 22 nM

CGGATTAGCGATACTCCGTTGGGTGGGTGGGTGGG (ssDNA) [S2]
IC50 ([2]; hairpin + G4): 110 nM

B6: L10 (ssDNA)
DNA: CGCCTGATTAGCGATACTCAGGCGTTTTTTTTTTTTTTTTGGGTGGGTGGGTGGG
IC50 [3]: 120 nM

GGGTGGGTGGGTTCGCCTGATTAGCGATACTCAGGCGTTGGG (ssDNA) [Ecut]
IC50 [1, 4]: 99 nM
